In article PMC3462190, “A Peptidic Unconjugated GRP78/BiP Ligand Modulates the Unfolded Protein Response and Induces Prostate Cancer Cell Death” (PLoS ONE, 2012):

Tests used:
[1] = system: ATPase domain of GRP78/BiP; assay: GST pull-down with ATPase domain of GRP78/BiP; type: binding; details: 10 µg GST-fused ATPase domain, lysate of HEK-293 cells; for the 68 amino acid peptide results not shown
GRP78/BiP [2] = assay: Co-immunoprecipitation with endogenous GRP78/BiP; type: binding
Method: 22Rv.1 cells were used for interaction studies of endogenous Bag-1 and GRP78/BiP, while for the in vivo interaction of the Bag-1 peptide and GRP78/BiP, HEK-293 cells were transfected with a plasmid encoding HA-tagged Bag-1 peptide. Twenty-four hours prior to the experiment, the cells in both cases were washed with phosphate buffered saline (PBS) and treated with 20 mM Dithiobis(succinimidyl propionate) (DSP) in PBS for 30 min at room temperature. The reaction was stopped with 20 mM Tris and the cells were lysed in 50 mM Tris-HCl pH 7.4, 120 mM NaCl, 1 mM EDTA, 0.4% NP40 and 1% protease inhibitor cocktail. Immunoprecipitation of GRP78/BiP was carried out overnight at 4°C with anti-GRP78 antibody coupled to sepharose A beads (Abcam, ab21685). Binding of endogenous Bag-1 or of HA-peptide was determined by Western blotting using a Bag-1 or an HA specific antibody.
Figure 1 Bag-1 proteins interact with the molecular chaperone GRP78/BiP. A. The Bag-1 family of proteins binds GRP78/BiP. GST pull-down assay was performed incubating 5 µg each of GST-fused Bag-1 proteins with 400 µg of 22Rv.1 cell lysate. […]
Figure 2 Identification of Bag-1 peptide interfering with the action of GRP78/BiP. […] Western blot analysis with an HA antibody to detected the Bag-1 mutants is shown. […] Thereafter luciferase activity was measured. […]

GRP78/BiP [3] = assay: In vitro ATPase activity assay of GRP78; type: biochemical; details: GRP78 0.5 µg, GST purified Bag-1 or Bag-1 peptide up to 1.5 µg, 1 h, 37°C
Method: In vitro ATPase activity assay of GRP78. A. ATPase activity was measured with the ATPase assay kit from Innova Bioscience (Cambridge, UK). The reaction mixture contained GRP78 (0.5 µg) increasing amounts of GST purified Bag-1 (continuous line) or Bag-1 peptide (dashed line) up to 1.5 µg. The reaction was carried out for 1 h at 37°C with purified ATP according to the manufacturer’s instructions. Each point represents the mean value of three independent experiments ± SEM. B. The purity of protein preparation used for the assay. Shown are 5 µg of purified GRP78 (StressMarq Biosciences, Victoria, Canada), GST Bag-1 peptide, and GST-Bag-1 used in the assay following SDS PAGE and Coomassie blue staining. (TIF) Click here for additional data file.

Molecule	interaction with ATPase domain of GRP78/BiP [1]	in vivo interaction with GRP78/BiP (GRP78/BiP [2]; 22Rv.1 cells, endogenous Bag-1)	ATPase activity of GRP78/BiP (GRP78/BiP [3])	in vivo interaction with endogenous GRP78/BiP (GRP78/BiP [2]; HEK-293 cells expressing HA-tagged Bag-1 peptide, DSP cross-linked)
Bag-1: cochaperone Bag-1, HA-tagged (pcDNA3.1-HA-Bag-1), or endogenous (protein, left off: HA, end not stated, kept, cochaperone Bag-1, HA-tagged (pcDNA3.1-HA-Bag-1), or endogenous) TPLSALGIQDGCRVMLIGKKNSPQEEVELKKLKHLEKSVEKIADQLEELNKELTGIQQGFLPKDLQAE	interacted not only with the full length GRP78/BiP but also with its ATPase and SBD	bind to GRP78/BiP in 22Rv.1 cells	increased this enzymatic activity	–
Bag-1 peptide: internal sequence of 68 amino acids of Bag-1 (Bag1-L 202–269), HA-tagged, expressed from pcDNA3 (also: HA tag, end not given here) TPLSALGIQDGCRVMLIGKKNSPQEEVELKKLKHLEKSVEKIADQLEELNKELTGIQQGFLPKDLQAE	interacted with both the SBD and ATPase binding domains of GRP78	–	did not have any effect on the ATPase activity of GRP78/BiP	interacted with endogenous GRP78/BiP protein
